This is an account of results in patent US20230204576A1.

In assay [1] the target is HLA A*03:01, labelled with Alexafluor 647 (human). The assay is described as follows: microfluidic diffusional sizing, 25 nM HLA, non-linear binding fit.
For assay [2] the target is unchanged. The assay is described as follows: microfluidic diffusional sizing, global fit at 25 nM and 500 pM HLA.

antibody W6/32: in assay [1], the Kd worked out at 0.961 nM and the binding site concentration B1 was found to be 13 nM. In assay [2], this substance showed a dissociation constant (Kd) of 0.466 nM.
